Results: patent US20250179215A1, “PLASMIN-BINDING VHHS” (RHEINISCHE FRIEDRICH-WILHELMS-UNIVERSITÄT BONN, priority 2022, published 2025)
Entries after “also recorded” stand apart in the source; their conditions may differ.

Columns and labels:
[1] = target: human plasmin (human, UniProt P00747 97-580; P00747 581-810); assay: cell-based or functional assay
[2] = target: T1, plasmin (Homo sapiens, UniProt P00747); assay: Michaelis-Menten kinetics of plasmin-mediated cleavage of fluorogenic peptide substrate; type: biochemical; conditions: plasmin 5 nM; VHHs 1 μM, BPTI 3 nM, TXA 7.86 mg/ml; w/o ligand 51.8
T1 construct: human Lys-plasmin which is prepared from homogeneous Glu-plasminogen using uPA; purchased Haematologic Technologies, Inc. (Essex Junction, VT)
T1 sequence (P00747 97-580 limits assumed): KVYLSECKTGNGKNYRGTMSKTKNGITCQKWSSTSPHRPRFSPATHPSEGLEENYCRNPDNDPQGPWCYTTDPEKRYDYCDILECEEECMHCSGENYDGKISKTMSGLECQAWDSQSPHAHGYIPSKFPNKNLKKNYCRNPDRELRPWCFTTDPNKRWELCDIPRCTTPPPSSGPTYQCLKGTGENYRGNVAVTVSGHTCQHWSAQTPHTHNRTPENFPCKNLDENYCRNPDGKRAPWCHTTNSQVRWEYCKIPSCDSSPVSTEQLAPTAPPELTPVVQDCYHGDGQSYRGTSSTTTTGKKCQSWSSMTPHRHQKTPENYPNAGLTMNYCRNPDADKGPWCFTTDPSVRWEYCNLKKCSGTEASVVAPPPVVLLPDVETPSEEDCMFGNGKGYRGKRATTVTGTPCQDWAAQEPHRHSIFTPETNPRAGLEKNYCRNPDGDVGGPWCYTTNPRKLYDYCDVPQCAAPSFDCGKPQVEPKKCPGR
T1 sequence (P00747 581-810 limits assumed): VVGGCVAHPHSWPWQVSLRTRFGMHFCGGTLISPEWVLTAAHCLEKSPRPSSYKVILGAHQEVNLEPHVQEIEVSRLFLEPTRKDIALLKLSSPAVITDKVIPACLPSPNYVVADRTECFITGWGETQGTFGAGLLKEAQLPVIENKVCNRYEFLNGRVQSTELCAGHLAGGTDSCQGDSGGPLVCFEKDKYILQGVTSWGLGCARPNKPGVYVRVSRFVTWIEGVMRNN
Protocol: Subsequently, 50 μl of the fluorogenic substrate (3.16-3,160 μM final concentration in assay buffer) was added. Substrate hydrolysis rates were monitored by kinetic measurements using the Synergy 2 microplate reader. Apparent Michaelis-Menten constants (Km) and the turn-over number (kcat) values for substrate hydrolysis were calculated from best fit values of the Michaelis-Menten equation and the catalytic efficiencies were expressed as ratios of kcat/Km.
CI, confidence interval. ^a The turnover number (kcat) was calculated using Vmax values extracted from Michaelis-Menten least squares fit.

[3] = system: citrate-anticoagulated whole blood; assay: Rotational thrombelastometry clot lysis in tPA-spiked whole blood; type: biochemical; conditions: for lysis index at 60 min: concentrations above 1.2 μM, decrease from 65%; for lysis index at 60 min / lysis onset time: tPA 0.5 μg/ml; for lysis onset time: reduced from 47.2 min
Excerpt: To further test the fibrinolysis-activating properties of VHHs in an ex-vivo model of hyperfibrinolysis, a whole blood based assay can be used whereat citrate-anticoagulated whole blood in the presence of VHHs is spiked with tPA and clot formation and the fibrinolysis rate of the formed clot monitored by thrombelastometry after initiation of clotting by addition of CaCl2) solution containing recombinant TF.
FIG. 4. Influence of VHHs on endogenous fibrinolysis. (A) Citrate-anticoagulated whole blood was mixed with VHHs A11 or C5 and with tPA to achieve a final concentration of 0.5 μg/ml and clot formation was induced by addition of CaCl2) (0.2 M). (B) Lysis index at 60 min(C) Maximum lysis rates, and (D) lysis onset time were recorded. Mean values and SD were calculated out of three measurements.
(§1) The impact of VHHs on the fibrinolytic activity in plasma and whole blood was monitored using rotational thrombelastometry using the ROTEM delta system (TEM Innovations Ltd., Munich, Germany). […] After addition of 0.1 μg/ml tPA, coagulation was initiated by addition of recombinant tissue factor (Dade Innovin, Siemens Healthcare, Marburg, Germany) dissolved 1:100 in calcium chloride (0.2 M). The viscoelasticity of the formed clot was measured in terms of key parameters including clotting time, maximal clot firmness, maximum clot elasticity, maximum lysis, lysis index after 60 minutes, and lysis onset time.

[4] = system: citrate-anticoagulated pooled normal human plasma; assay: Rotational thrombelastometry clot formation parameters in plasma; type: biochemical; conditions: VHHs or BPTI 2.4 μM, TXA 2.4 μg/ml; tPA 0.1 μg/ml
Protocol: FIG. 10. The impact of VHHs on the clot formation parameters in plasma monitored by rotational thrombelastometry. […] After addition of tPA to reach a final concentration of 0.1 μg/ml, coagulation was initiated by addition of recombinant tissue factor (Dade® Innovin®) dissolved 1:100 in calcium chloride solution (0.2 M). The viscoelasticity of the formed clot was measured in terms of (A) clotting time, (B) maximum clot firmness, and (C) maximum clot elasticity. A non-binder VHH (GFP-enhancer VHH) was used as negative control. Mean values and SD were calculated out of three measurements.
as §1

[5] = target: T1, plasmin; assay: Activated factor V-inactivation assay (prothrombinase assay); type: biochemical; conditions: for FVa inactivation by plasmin reduced to % of normal: summary statement, concentration not given; for FVa inactivation rate reduced to: plasmin 1.5 nM, rate without VHH = 100%
Protocol: FIG. 6. (A) Influence of VHHs on plasmin-mediated FVa cleavage. Plasmin (1.5 nM) was incubated with increasing concentrations of VHHs for 30 min at 37° C. After addition of FVa (30 pM) and further incubation for 30 min, FXa (0.52 pM), prothrombin (10 nM) and a fluorogenic thrombin substrate (100 μM) were added and the FVa-dependent thrombin generation was measured. The FVa inactivation rate measured in the absence of VHHs or plasmin inhibitors was set as 100%. […] The data are presented as mean±SD of two independent measurements.
Plasmin-mediated inactivation of activated factor V (FVa) was measured using a prothrombinase assay as recently described (Hamedani 2020). Briefly, 1.5 nM plasmin in assay buffer (20 mM Tris-HCl, 137 mM NaCl, 10 mg/ml phospholipids, 5 mM CaCl2, 1 mg/ml BSA, pH 7.4) was preincubated with VHHs (0.1 nM-10 μM final concentrations) for 30 min at 37° C. Then, 60 μl of the mixture were mixed with 60 μl of […] FVa. After further incubation for 30 min, 25 μl of the reaction mixture were mixed with 50 μl of 1.3 μM human FXa and 100 μM fluorogenic thrombin substrate (Boc-Asp(OBzl)-Pro-Arg-AMC) and 50 μl of 10 nM human prothrombin. Thrombin catalyzed substrate hydrolysis was monitored at λex of 360 nm and λem of 460 nm using the Synergy 2 microplate reader.

[6] = target: T1, plasmin; assay: Biolayer Interferometry (BLI) binding of VHHs to human plasmin; conditions: HIS-tagged VHH on biosensor
Protocol: (§2) VHHs binding affinities to human and mouse plasminogen/plasmin were assessed according to Biolayer Interferometry (BLI) using the BLItz system (Pall Life Sciences, Dreieich, Germany) and the Blitz 1.2 software package (Hamedani 2016). […] Afterward, the biosensor was lowered into a tube containing 500 μl of binding buffer to determine kd and koff. All measurements were performed at a shaking speed of 2,200 rpm.

[7] = target: T2, mouse plasminogen (Mus musculus, UniProt P20918); assay: Biolayer Interferometry (BLI) binding of VHHs to mouse plasminogen; conditions: HIS-tagged VHH on biosensor
T2 construct: mouse Glu-plasminogen, mouse plasmin; purchased Haematologic Technologies, Inc. (Essex Junction, VT)
T2 sequence (P20918 20-812 limits assumed): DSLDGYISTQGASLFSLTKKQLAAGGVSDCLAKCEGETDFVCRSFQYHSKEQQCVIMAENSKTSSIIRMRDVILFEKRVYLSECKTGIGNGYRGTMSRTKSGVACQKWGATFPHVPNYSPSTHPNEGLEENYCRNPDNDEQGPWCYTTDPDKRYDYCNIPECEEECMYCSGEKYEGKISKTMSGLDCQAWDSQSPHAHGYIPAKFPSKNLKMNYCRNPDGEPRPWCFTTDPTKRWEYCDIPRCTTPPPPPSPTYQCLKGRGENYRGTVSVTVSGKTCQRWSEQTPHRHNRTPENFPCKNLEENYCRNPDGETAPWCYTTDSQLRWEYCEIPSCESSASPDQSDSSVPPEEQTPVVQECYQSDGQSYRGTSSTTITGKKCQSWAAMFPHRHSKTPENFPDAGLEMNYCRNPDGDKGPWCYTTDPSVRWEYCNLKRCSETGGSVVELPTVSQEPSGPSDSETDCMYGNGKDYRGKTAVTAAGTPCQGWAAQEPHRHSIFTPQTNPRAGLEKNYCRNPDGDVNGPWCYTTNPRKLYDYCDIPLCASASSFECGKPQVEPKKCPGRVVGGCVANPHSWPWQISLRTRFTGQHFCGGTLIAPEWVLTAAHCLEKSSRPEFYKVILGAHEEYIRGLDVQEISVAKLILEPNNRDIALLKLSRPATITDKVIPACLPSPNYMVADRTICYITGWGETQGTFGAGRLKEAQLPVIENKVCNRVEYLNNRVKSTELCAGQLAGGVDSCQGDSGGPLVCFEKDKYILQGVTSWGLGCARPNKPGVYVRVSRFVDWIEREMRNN
Protocol: as §2

[8] = target: Ocriplasmin (Homo sapiens, UniProt P00747); assay: Biolayer Interferometry (BLI) binding of VHHs to ocriplasmin (miniplasmin); conditions: HIS-tagged VHH on biosensor
Sequence of Ocriplasmin (P00747 581-810 limits assumed, other chains not shown): as the sequence (P00747 581-810 limits assumed) above
Protocol: as §2

[9] = target: T3, tPA (Homo sapiens, UniProt P00750); assay: Biolayer Interferometry (BLI) binding of VHHs to tPA; conditions: HIS-tagged VHH on biosensor
T3 construct: purchased Boehringer Ingelheim (Biberach, Germany) Actilyse
T3 sequence (P00750 36-562): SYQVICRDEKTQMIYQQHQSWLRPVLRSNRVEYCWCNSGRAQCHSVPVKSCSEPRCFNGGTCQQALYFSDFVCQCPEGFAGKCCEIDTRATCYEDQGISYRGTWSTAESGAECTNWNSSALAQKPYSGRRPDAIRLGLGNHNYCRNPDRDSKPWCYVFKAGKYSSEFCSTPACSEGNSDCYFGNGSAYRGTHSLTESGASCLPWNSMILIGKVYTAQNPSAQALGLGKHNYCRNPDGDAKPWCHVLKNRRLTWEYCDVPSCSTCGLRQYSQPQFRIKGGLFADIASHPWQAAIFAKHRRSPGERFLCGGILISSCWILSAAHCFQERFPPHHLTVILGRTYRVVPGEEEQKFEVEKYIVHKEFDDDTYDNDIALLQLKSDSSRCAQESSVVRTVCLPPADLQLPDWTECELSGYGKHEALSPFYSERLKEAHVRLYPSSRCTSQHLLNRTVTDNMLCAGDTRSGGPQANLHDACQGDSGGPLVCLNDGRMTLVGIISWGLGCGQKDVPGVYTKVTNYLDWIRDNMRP

[10] = target: T1, plasmin; assay: VHHs competition ELISA (plasmin binding to immobilized VHH); conditions: free VHH vs immobilized VHH; plasmin 10 nM
Protocol: FIG. 2. VHHs competition ELISA. The VHH (A) A11 or (B) C5 was immobilized in the microtiter plate by overnight incubation of 10 μg/ml VHH in 100 μl of coating buffer. […] Data represent the mean±SD of two measurements.
To assess the competition of VHHs for similar or overlapping binding sites on the plasmin molecule, a competition ELISA was performed. Microtiter (96-well) plates were coated with VHHs (10 μg/ml in coating buffer, 100 μl/well) at 2-8° C. overnight. Wells were washed and non-specific protein-binding sites were blocked with 20 mg/ml bovine serum albumine (BSA) for 2 h at RT. After removing the blocking buffer, wells were overlaid with a reaction mixture containing plasmin (10 nM) and VHHs (0.316 nM-31.6 μM) in buffer (20 mM HEPES, 154 mM NaCl, BSA 1 mg/ml, pH 7.4) for 30 min at RT. After washing the amount of bound plasmin was quantified through hydrolysis rates of the fluorogenic plasmin substrate (300 μM, 100 μl/well). The fluorescence intensity measured in the absence of free VHHs was set as 100%.

[11] = target: T1, plasmin; assay: Influence on catalytic activity of plasmin with fluorogenic peptide substrate; type: biochemical; conditions: plasmin 5 nM; for increase in substrate conversion: at molar ratios of VHHs over plasmin of 158 (A11) and 500 (C5)
Protocol: FIG. 3. Effect of plasmin VHHs on the catalytic activity of plasmin for peptide substrates. […] Mean values and SD were calculated out of three measurements.
After incubation, 50 μl of the mixtures were transferred to the wells of black F16 Fluoronunc modules (Thermo Fisher Scientific [Nunc]). Subsequently, 50 μl of 800 μM PLM-specific fluorogenic peptide substrate in the assay buffer (H-Ala-Phe-Lys-AMC, Bachem) was added to the wells and the kinetics of plasmin-mediated substrate hydrolysis was monitored using the Synergy 2 microplate reader.

[12] = target: T4, plasminogen (Homo sapiens, UniProt P00747); assay: Plasmin generation assay (tPA-mediated plasminogen activation, purified system); type: biochemical; conditions: for inhibition of plasmin generation at higher concentrations: at the assessed / higher concentrations; for EC50: plasminogen 10 nM, tPA 10 nM, read-out: EC50 of tPA-induced plasmin generation
T4 construct: Plasma derived human Glu-plasminogen; purchased Haematologic Technologies, Inc. (plasminogen); Boehringer Ingelheim (tPA)
T4 sequence (P00747 20-810 limits assumed): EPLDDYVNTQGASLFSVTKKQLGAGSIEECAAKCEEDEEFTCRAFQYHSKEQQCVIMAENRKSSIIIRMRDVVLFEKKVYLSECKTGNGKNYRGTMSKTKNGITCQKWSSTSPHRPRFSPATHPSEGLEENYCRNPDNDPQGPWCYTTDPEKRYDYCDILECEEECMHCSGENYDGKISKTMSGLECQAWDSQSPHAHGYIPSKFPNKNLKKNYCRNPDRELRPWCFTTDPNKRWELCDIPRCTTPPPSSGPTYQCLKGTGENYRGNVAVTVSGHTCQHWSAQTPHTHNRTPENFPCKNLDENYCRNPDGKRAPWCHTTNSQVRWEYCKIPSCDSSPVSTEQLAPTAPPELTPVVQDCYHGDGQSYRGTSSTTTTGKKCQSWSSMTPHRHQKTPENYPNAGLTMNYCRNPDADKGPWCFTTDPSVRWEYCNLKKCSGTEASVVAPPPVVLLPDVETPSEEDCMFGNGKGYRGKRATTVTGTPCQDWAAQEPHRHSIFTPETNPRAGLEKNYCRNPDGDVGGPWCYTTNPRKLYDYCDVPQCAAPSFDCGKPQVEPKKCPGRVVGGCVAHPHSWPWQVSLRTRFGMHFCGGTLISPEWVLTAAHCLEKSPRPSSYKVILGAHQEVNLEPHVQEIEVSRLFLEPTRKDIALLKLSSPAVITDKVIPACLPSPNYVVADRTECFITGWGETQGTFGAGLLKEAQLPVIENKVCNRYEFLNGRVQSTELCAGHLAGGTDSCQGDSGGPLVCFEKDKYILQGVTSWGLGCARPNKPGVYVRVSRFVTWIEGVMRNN
Protocol: In order to assess the influence of VHHs on tPA-mediated plasminogen activation, plasminogen was preincubated with increasing concentrations of VHHs. After addition of tPA, plasmin generation was measured over time using a fluorogenic plasmin peptide substrate.
FIG. 5. Influence of VHHs on tPA-mediated plasminogen activation. […] After addition of tPA (10 nM final concentration) plasmin generation was measured over time using the fluorogenic plasmin assay. The data are presented as mean±SD of three independent measurements.
Plasminogen (50 nM) was incubated with VHHs (2 μM to 0.2 μM) for 30 min at 37° C. in assay buffer. Subsequently, 20 μl of 50 nM tPA was added to the mixture and incubated at 37° C. After 3 hours of incubation at 37° C., 50 μl of the mixture were transferred to the wells of black F16 Fluoronunc modules and after addition of 50 μl of the plasmin-specific fluorogenic substrate (800 μM) fluorescence intensities were measured at λex of 360 nm and λem of 460 nm using the Synergy 2 microplate reader.

Sequence of human plasmin (P00747 97-580 limits assumed, chain 1 of 2): as the sequence (P00747 97-580 limits assumed) above
Sequence of human plasmin (P00747 581-810 limits assumed, chain 2 of 2): as the sequence (P00747 581-810 limits assumed) above

Row | FVa inactivation by plasmin reduced to % of normal [5] [%] | kD human plasmin [6] | kD mouse plasminogen [7] | kD tPA [9] | inhibition of plasmin generation at higher concentrations [12] | EC50 [12] [nM] | Molecule | kcat × 10^3 (s^−1) mean (95% CI) [2] | competition of VHHs for binding site on plasmin molecule [10] | increase in substrate conversion [11] | lysis index at 60 min [3] [%] | lysis onset time [3] [min] | other results
1 |  |  |  |  |  |  | human alpha2-antiplasmin (from UniProt P08697 40-491) |  |  |  |  |  | residual plasmin activity after incubation with α2AP [1]: < 0.1%
2 | 20 |  |  |  |  |  | Aprotinin [BPTI, reference compound] | 29.6 (29-30) s^−1 |  |  |  |  | effect on lysis compared to VHHs (FIG. 4C, maximum lysis rates) ([3]; tPA-spiked whole blood): inhibition of lysis; effect on fibrin clot formation parameters (clotting time, maximum clot firmness, maximum clot elasticity) [4]: does not affect; maximal inhibition rate of plasmin-mediated cleavage of FVa ([5]; BPTI 10 μM): 26%
3 | 80 | low nanomolar range | no reactivity | weak binding | no inhibitory effect | 2.3 | VHH C5: Plasmin-binding alpaca VHH; variable domain SEQ ID NO: 10, or 20 with C-terminal His6-tag; CDRs SEQ ID NO: 4-6 (protein, C5 VHH) VHH: QVQLVESGGGLVQAGGSLRLSCAASGRRFMVVAMGWYRQAPGNQRELVASITNGGTTNYAGSVKGRFTISGDSAKNTVYLHMNSLKPEDTAVYYCTTDVVFRDGNGQIQSNWGQGTQVTVSS | 69.9 (68-72) s^−1 | competed for the same or overlapping binding site | approx. 2.5 fold | 0 | 13.8 | kD Ocriplasmin ([8]; listed as C5): None of these VHHs bind and n.b.; FVa inactivation rate reduced to ([5]; C5 concentration of 3.16 nM or higher): 78%
4 |  | low nanomolar range | no reactivity | weak binding | no inhibitory effect | 0.93 | VHH A11: Plasmin-binding alpaca VHH; variable domain SEQ ID NO: 9, or 11 with C-terminal His6-tag; CDRs SEQ ID NO: 1-3 (protein, A11 VHH) VHH: QVQLVETGGGLVQAGGSLRLSCAASGNIFSINAMDWYRQAPGKERELVAAITSGGTTNYADSVKGRFTISRDNAKDTVYLQMNSLKPEDAAFYYCNADGYYSDYDKNLAEFNSWGQGTQVTVSS | 67.2 (65-70) s^−1 | competed for the same or overlapping binding site | approx. 2.5 fold | 0 | 10.3 | kD Ocriplasmin ([8]; listed as A11): None of these VHHs bind; also recorded: n.b.*; molar ratio of VHHs over plasmin at which approx. 2.5-fold increase in substrate conversion was achieved ([11]; H-Ala-Phe-Lys-AMC): 158; FVa inactivation rate reduced to ([5]; A11 concentrations above 10^-9 M): 60%; FVa inactivation by plasmin reduced to % of normal ([5]; listed as A11): 60%
